For one substance, Kd results are on record in publication PMC11323494, “A network of acetyl phosphate-dependent modification modulates c-di-AMP homeostasis in Actinobacteria” (mBio, 2024).

The data set concerns DasR K78Q (Saccharopolyspora erythraea NRRL2338). Description: BLI. The note with it: BLI: 10 mM HEPES pH 8.0, 2 mM MgCl2, 0.1 mM EDTA, 200 mM KCl (running buffer + 10 µg/mL BSA, 0.02% Tween-20), SA sensor, temperature not stated; EMSA: 5 nM …. On the technique in general: In EMSA bound probe runs differently from free probe, usually more slowly.

The Kd is the concentration at which binding is half-saturated. disA promoter probe: the Kd was 20 µM.
